38 sequences from the supplement of paper PMC9732359 can be followed below.

± gives the uncertainty stated by the source.

The data set in a line: protein stability index of a GFP-peptide fusion (yeast GPS) (PSI 1-4); higher = more stable; sorted into four equal gates, so the index is relative within each strain. The gist of the method: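 For each peptide, the protein stability index sums the read frequency in every gate after multiplying it by the gate number. Read frequencies came from plasmids that were PCR-amplified from each gate and Illumina-sequenced, with reads assigned to strains by barcodes. The gates were four equal bins of GFP/Cherry fluorescence ratio applied to mid-log yeast in leucine-free medium carrying a pooled library of tiled 17-residue yeast protein peptides fused downstream of GFP on a Cherry-expressing plasmid.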

As for SPMGAQPSYNSAIIENA [GAL11], the protein stability index reads like this: (doa10∆) 2.88 ± 0.074; (pdr5∆) 2.96 ± 0.071; (san1∆) 2.5 ± 0.1; (ubr1∆) 2.73 ± 0.045.
As for PCLRKYEEFRDVAIENN [RRP43], the protein stability index (doa10∆) was 2.73 ± 0.064, the protein stability index (pdr5∆) turned out to be 2.82 ± 0.065, the protein stability index (san1∆) was 2.9 ± 0.041 and the protein stability index (ubr1∆) worked out at 2.94 ± 0.047.
The corresponding values for TTIFVKSTTPYVSALKR [POP7] are 1.82 ± 0.07, 2.27 ± 0.077, 2.27 ± 0.076 and 1.97 ± 0.056.
The matching figures for GTNNISQHGQGNNPSWV [YDL088C/ASM4]: 3.01 ± 0.078, 3.39 ± 0.059, 3.3 ± 0.058 and 3.12 ± 0.054.
On to IQGISKMYSDDTLKDIS [BRN1], for which the protein stability index (doa10∆) was determined as 3.24 ± 0.17, the protein stability index (pdr5∆) came out at 3.35 ± 0.15, the protein stability index (san1∆) was 3.37 ± 0.15 and the protein stability index (ubr1∆) was determined as 3.05 ± 0.17.
Turning to TSQMDLARDTPSANNSS [RRP4], the protein stability index reads like this: (doa10∆) 1.86 ± 0.042; (pdr5∆) 1.46 ± 0.064; (san1∆) 1.91 ± 0.077; (ubr1∆) 1.51 ± 0.045.
EVTAGEAQDEASLQQQQ [SNF6]: the protein stability index stood at 3.31 ± 0.17 (doa10∆), 3.29 ± 0.14 (san1∆) and 3.6 ± 0.27 (ubr1∆).
Turning to VSEVAKIMQEATQSGGV [PRE8], the protein stability index runs as follows: (doa10∆) 2.96 ± 0.11; (pdr5∆) 2.77 ± 0.17; (san1∆) 2.77 ± 0.15; (ubr1∆) 3.05 ± 0.097.
LQAIDLLENPNCFFDVI [DIS3]: the protein stability index is 2.48 ± 0.068 (doa10∆), 2.29 ± 0.066 (pdr5∆), 3.06 ± 0.056 (san1∆) and 2.38 ± 0.056 (ubr1∆).
In turn, VEEDHTLGNALRYVIMK [RPC19] gave a protein stability index (doa10∆) of 3.08 ± 0.11, a protein stability index (pdr5∆) of 2.75 ± 0.071, a protein stability index (san1∆) of 2.54 ± 0.085 and a protein stability index (ubr1∆) of 2.73 ± 0.063.
On to NVKELWTEKKGKNVINR [SMD2], for which the protein stability index is 3.46 ± 0.22 (doa10∆), 3.54 ± 0.18 (san1∆) and 3.6 ± 0.11 (ubr1∆).
As for TRQASDLASSKEVLAKI [RPN5], the protein stability index (doa10∆) stood at 2.92 ± 0.11, the protein stability index (pdr5∆) was 2.96 ± 0.06, the protein stability index (san1∆) stood at 2.99 ± 0.077 and the protein stability index (ubr1∆) came to 2.85 ± 0.076.
The matching figures for SQIFDQLKDMQTIEMIT [SRB8]: 2.78 ± 0.058, 3.11 ± 0.049, 2.72 ± 0.049 and 2.85 ± 0.043.
VSQVRVVPNEKADDDSV [ASC1] came in with a protein stability index (doa10∆) of 2.72 ± 0.17, a protein stability index (pdr5∆) of 3.11 ± 0.15, a protein stability index (san1∆) of 3.06 ± 0.11 and a protein stability index (ubr1∆) of 2.6 ± 0.08.
In the case of EMGKLRERDITSLFHKF [RRI2], the protein stability index by setting is: (doa10∆) 1.8 ± 0.071; (pdr5∆) 1.83 ± 0.071; (san1∆) 1.79 ± 0.17; (ubr1∆) 1.95 ± 0.058.
On to FYLYMLVQKFGGADQVT [SWI1], for which the protein stability index (pdr5∆) worked out at 1.35 ± 0.19 and the protein stability index (ubr1∆) came out at 1.75 ± 0.14.
As for VLVASAKGLQTVVVEED [RPL31A], the protein stability index stood at 2.19 ± 0.1 (doa10∆), 2.49 ± 0.11 (pdr5∆), 2.54 ± 0.087 (san1∆) and 2.25 ± 0.094 (ubr1∆).
The matching figures for SLASCLRSTEYSKSFEQ [POP1]: 2.58 ± 0.11, 2.88 ± 0.13, 2.89 ± 0.083 and 2.76 ± 0.12.
EIGLLGGRYVYPVHEAH [SNU114] displayed a protein stability index (doa10∆) of 1.85 ± 0.064, a protein stability index (pdr5∆) of 2.55 ± 0.091, a protein stability index (san1∆) of 2.79 ± 0.077 and a protein stability index (ubr1∆) of 2.03 ± 0.084.
For REILCYSKDAKEIYYTP [FAS2], the protein stability index turned out to be 2.679 ± 0.024 (doa10∆), 2.821 ± 0.025 (pdr5∆), 2.701 ± 0.025 (san1∆) and 2.71 ± 0.019 (ubr1∆).
Turning to VPPIASPQQFLRAHTDD [PRE2], the protein stability index by setting is: (doa10∆) 2.02 ± 0.068; (pdr5∆) 2.72 ± 0.063; (san1∆) 2.17 ± 0.11; (ubr1∆) 2.6 ± 0.087.
The corresponding values for SSNILEDILYYSTCPSE [SRB8] are 2.4 ± 0.1, 2.4 ± 0.075, 2.77 ± 0.059 and 2.54 ± 0.062.
For AIPNGIHLQRFDEGTTL [RPO21], the protein stability index is, setting by setting: (doa10∆) 2.29 ± 0.064; (pdr5∆) 1.89 ± 0.11; (ubr1∆) 2.32 ± 0.062.
SLKNTDALLNSTTEHIN [YJL039C/NUP192]: the protein stability index was 1.9 ± 0.15 (doa10∆), 2.49 ± 0.094 (pdr5∆), 2.13 ± 0.12 (san1∆) and 2.42 ± 0.16 (ubr1∆).
For the sequence AFGVSVAFLDNDLGKFI [RPN7], the protein stability index turned out to be 3.17 ± 0.086 (doa10∆), 3.16 ± 0.1 (pdr5∆), 3.07 ± 0.081 (san1∆) and 3.28 ± 0.057 (ubr1∆).
RYISTLTLYLFQDYLTQ [IRR1]: the protein stability index is, setting by setting: (doa10∆) 2.14 ± 0.2; (pdr5∆) 1.76 ± 0.08; (san1∆) 3.14 ± 0.24; (ubr1∆) 3.38 ± 0.27.
As for AGERKIPHDLNFLQESY [TAF14], the protein stability index is, setting by setting: (doa10∆) 2.83 ± 0.086; (pdr5∆) 3 ± 0.079; (san1∆) 2.71 ± 0.064; (ubr1∆) 2.62 ± 0.071.
Take LKLGLVEYLDVNEENDS [RET1]: the protein stability index runs as follows: (doa10∆) 3.11 ± 0.075; (pdr5∆) 3.08 ± 0.086; (san1∆) 3.16 ± 0.071; (ubr1∆) 3.1 ± 0.075.
In the case of EKIWFAISKENLCGDIS [SIR3], the protein stability index by setting is: (doa10∆) 2.39 ± 0.064; (pdr5∆) 2.44 ± 0.078; (san1∆) 2.27 ± 0.11; (ubr1∆) 1.91 ± 0.078.
For LFQRQKLHEFYLLISKE [IRR1], the protein stability index reads like this: (doa10∆) 2.69 ± 0.12; (pdr5∆) 2.97 ± 0.076; (san1∆) 2.63 ± 0.061; (ubr1∆) 2.87 ± 0.12.
The corresponding values for AELKLAGEFGLKNKKEI [RPS9A] are 3.08 ± 0.11, 3.21 ± 0.15, 3.2 ± 0.18 and 3.21 ± 0.12.
The corresponding values for LKNLRKKLNFKLCQAFM [YJR042W/NUP85] are 2.19 ± 0.089, 2.18 ± 0.093, 1.61 ± 0.15 and 2.98 ± 0.15.
Consider NTCTISTSKFESQYPIV [SWP82], for which the protein stability index by setting is: (doa10∆) 2.57 ± 0.089; (pdr5∆) 2.67 ± 0.11; (san1∆) 2.97 ± 0.074; (ubr1∆) 2.81 ± 0.071.
With QPLFSTVPEYLKTADNR [PGD1], the protein stability index by setting is: (doa10∆) 2.79 ± 0.088; (pdr5∆) 2.6 ± 0.099; (san1∆) 2.87 ± 0.075; (ubr1∆) 2.96 ± 0.057.
Take VLKFAAHTGATPIAGRF [RPS0A]: the protein stability index reads like this: (doa10∆) 2.23 ± 0.21; (pdr5∆) 2.85 ± 0.11; (san1∆) 2.81 ± 0.13; (ubr1∆) 2.1 ± 0.12.
For KLDQDDEIYIPINGNEA [CSI1], the protein stability index is 3.24 ± 0.15 (doa10∆), 3.46 ± 0.091 (pdr5∆), 3.19 ± 0.09 (san1∆) and 3.45 ± 0.072 (ubr1∆).
The corresponding values for NGEIKGENIDADNDGPR [SNF2] are 3.07 ± 0.074, 3.48 ± 0.069, 3.49 ± 0.063 and 3.08 ± 0.073.
Take FTCSCNSLTVDGNNANY [RPN14]: the protein stability index runs as follows: (doa10∆) 2.8 ± 0.074; (pdr5∆) 2.81 ± 0.076; (san1∆) 2.69 ± 0.058; (ubr1∆) 2.75 ± 0.044.
